{"source": "paper PMC4265266", "molecular_target": "FLAG-tagged recombinant human butyrylcholinesterase (^FLAGBChE) (human) (UniProt P06276)", "assay": "non-reducing SDS-PAGE with immuno", "note": "Several values for one entry are separate records, joined by “and”; a condition that tells them apart may be missing. Equal values may be shown once.", "data": [{"substance": "FLAG-tagged recombinant human butyrylcholinesterase (^FLAGBChE) (from UniProt P06276 29-602) (enzyme)", "values": [{"measurement": "stoichiometry N", "result": "2 and 4"}]}]}
